Data published in publication PMC5641968 (2017).
Where two headings read alike, the source gives them in different places.

Legend:
Test in all cases: biolayer interferometry
calmodulin [1] = biological target: calmodulin (UniProt P0DP23)
calmodulin [2] = biological target: calmodulin (UniProt P0DP23); remark: listed apart in the source
calmodulin [3] = biological target: calmodulin (UniProt P0DP23); remark: listed apart in the source

B1: eNOS (protein)
chain: GNLKSVGQEPGPPCGLGLGLGLGLCGKQGPASPAPEPSRAPAPATPHAPDHSPAPNSPTLTRPPEGPKFPRVKNWELGSITYDTLCAQSQQDGPCTPRCCLGSLVLPRKLQTRPSPGPPPAEQLLSQARDFINQYYSSIKRSGSQAHEERLQEVEAEVASTGTYHLRESELVFGAKQAWRNAPRCVGRIQWGKLQVFDARDCSSAQEMFTYICNHIKYATNRGNLRSAITVFPQRAPGRGDFRIWNSQLVRYAGYRQQDGSVRGDPANVEITELCIQHGWTPGNGRFDVLPLLLQAPDEAPELFVLPPELVLEVPLEHPTLEWFAALGLRWYALPAVSNMLLEIGGLEFSAAPFSGWYMSTEIGTRNLCDPHRYNILEDVAVCMDLDTRTTSSLWKDKAAVEINLAVLHSFQLAKVTIVDHHAATVSFMKHLDNEQKARGGCPADWAWIVPPISGSLTPVFHQEMVNYILSPAFRYQPDPWKGSATKGAGITRKKTFKEVANAVKISASLMGTLMAKRVKATILYASETGRAQSYAQQLGRLFRKAFDPRVLCMDEYDVVSLEHEALVLVVTSTFGNGDPPENGESFAAALMEMSGPYNSSPRPEQHKSYKIRFNSVSCSDPLVSSWRRKRKESSNTDSAGALGTLRFCVFGLGSRAYPHFCAFARAVDTRLEELGGERLLQLGQGDELCGQEEAFRGWAKAAFQASCETFCVGEEAKAAAQDIFSPKRSWKRQRYRLSTQAEGLQLLPGLIHVHRRKMFQATVLSVENLQSSKSTRATILVRLDTAGQEGLQYQPGDHIGICPPNRPGLVEALLSRVEDPPPPTESVAVEQLEKGSPGGPPPSWVRDPRLPPCTLRQALTFFLDITSPPSPRLLRLLSTLAEEPSEQQELETLSQDPRRYEEWKWFRCPTLLEVLEQFPSVALPAPLLLTQLPLLQPRYYSVSSAPNAHPGEVHLTVAVLAYRTQDGLGPLHYGVCSTWLSQLKTGDPVPCFIRGAPSFRLPPDPYVPCILVGPGTGIAPFRGFWQERLHDIESKGLQPAPMTLVFGCRCSQLDHLYRDEVQDAQERGVFGRVLTAFSREPDSPKTYVQDILRTELAAEVHRVLCLERGHMFVCGDVTMATSVLQTVQRILATEGDMELDEAGDVIGVLRDQQRYHEDIFGLTLRTQEVTSRIRTQSFSLQERHLRGAVPWAFDPPGPDTPGP
modifications: Ca2+
Binder B1 has a Kd (calmodulin [1]) of 0.65 nM, a Kd (calmodulin [2]) of 0.5 nM and a Kd (calmodulin [3]) of 0.645 nM.
